Target: G protein alpha subunit of human erythrocyte membranes (human) (UniProt P63092)

Substance: rCTXA1/T1 (CTXA1 truncated at Trp179) (enzyme)
- SPECIFIC ACTIVITY FOR HEM G. PROTEIN (ADP-ribosyltransferase, relative): < 0.01
